Columns and labels:
[1] = target: ErbB4 receptor (rat (endogenous in rat brain membranes and cultured rat hippocampal neurons)); assay: co-IP; ErbB4 immunoprecipitated with mAB10 from lysates (PBS + 1% TX-100) of cultured rat hippocampal neurons (>DIV 28), unstimulated or 10 nM NRG2 for 10 min; western blot, densitometric ratio of glutamate receptor subunit over ErbB4
[2] = target: ErbB4 receptor (rat (endogenous in rat brain membranes and cultured rat hippocampal neurons))

Chain of ErbB4 receptor (rat (endogenous in rat brain membranes and cultured rat hippocampal neurons)) (Q62956 26-1308): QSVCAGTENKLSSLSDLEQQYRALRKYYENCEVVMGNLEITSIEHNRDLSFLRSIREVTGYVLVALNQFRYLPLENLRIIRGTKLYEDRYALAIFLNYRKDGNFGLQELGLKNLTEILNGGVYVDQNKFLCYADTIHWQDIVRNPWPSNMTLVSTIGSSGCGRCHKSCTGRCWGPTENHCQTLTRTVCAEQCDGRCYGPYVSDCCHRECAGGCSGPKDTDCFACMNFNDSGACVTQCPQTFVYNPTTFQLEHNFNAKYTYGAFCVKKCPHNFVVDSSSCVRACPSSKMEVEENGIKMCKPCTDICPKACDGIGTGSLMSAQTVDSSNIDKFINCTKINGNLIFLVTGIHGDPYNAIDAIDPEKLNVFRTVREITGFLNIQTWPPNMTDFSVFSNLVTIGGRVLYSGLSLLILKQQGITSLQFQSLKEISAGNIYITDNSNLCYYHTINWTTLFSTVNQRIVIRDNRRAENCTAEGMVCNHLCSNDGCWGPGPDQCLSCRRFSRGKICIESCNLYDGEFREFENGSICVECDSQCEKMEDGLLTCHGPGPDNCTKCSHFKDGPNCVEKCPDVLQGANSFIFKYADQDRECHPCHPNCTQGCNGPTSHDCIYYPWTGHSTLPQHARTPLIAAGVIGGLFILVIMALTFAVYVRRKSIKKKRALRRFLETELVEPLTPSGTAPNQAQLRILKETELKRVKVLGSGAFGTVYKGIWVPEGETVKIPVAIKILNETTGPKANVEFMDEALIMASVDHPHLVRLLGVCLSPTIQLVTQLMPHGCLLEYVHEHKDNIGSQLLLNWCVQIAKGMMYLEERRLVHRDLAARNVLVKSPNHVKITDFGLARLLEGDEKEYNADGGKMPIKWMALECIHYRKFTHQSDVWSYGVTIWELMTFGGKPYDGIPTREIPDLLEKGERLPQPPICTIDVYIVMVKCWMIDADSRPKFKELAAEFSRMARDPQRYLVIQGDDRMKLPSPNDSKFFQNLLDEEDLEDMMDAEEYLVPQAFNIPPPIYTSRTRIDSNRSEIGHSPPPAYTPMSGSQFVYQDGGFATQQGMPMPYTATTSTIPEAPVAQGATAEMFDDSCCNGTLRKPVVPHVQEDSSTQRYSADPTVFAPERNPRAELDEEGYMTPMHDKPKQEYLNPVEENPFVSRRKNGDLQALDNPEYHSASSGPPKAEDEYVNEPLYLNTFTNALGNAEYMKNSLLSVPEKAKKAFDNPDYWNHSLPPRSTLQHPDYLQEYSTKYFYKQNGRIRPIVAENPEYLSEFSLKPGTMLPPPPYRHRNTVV

Row | co-immunoprecipitation after NRG2, % of unstimulated controls (% of controls) [1] | Substance | whole-cell NMDA-evoked currents (100 μM NMDA, +40 mV) in ErbB4+ cultured hippocampal interneurons after 10 min of 10 nM NRG2, relative to baseline; ErbB4-negative neurons not affected (% of baseline) [2]
1 | 198 | GluN2B subunit of the NMDA receptor (from UniProt Q00960 27-1482) | –
2 | – | recombinant NRG2-ECD (neuregulin 2 extracellular domain) (ligand) | 43
